Laboratory results taken from doi:10.1101/2023.08.10.552651.

How the values were obtained:
[1] = target: SbtB ΔT-loop (T-loop Arg43-Ser52 truncation variant of SbtB) (Synechocystis sp. PCC 6803); experiment: cryo-EM structure
[2] = target: sodium-dependent bicarbonate transporter SbtA (Synechocystis sp. PCC 6803); experiment: cryo-EM structure

stoichiometry N [1] | stoichiometry N [2] | Substance
3 |  | SbtB ΔT-loop (T-loop Arg43-Ser52 truncation variant of SbtB) (natural protein)
 | 3 | sodium-dependent bicarbonate transporter SbtA (natural protein)
